Data set [1] deals with Cys15 (UniProt position 14, AANWKCNGSQQ). Kind of data set: chemical modification (MMTS inactivation followed by enzyme activity). To be noted: not stated for the pKa determination (MMTS inactivation and activity assays were at 25°C); 100 mM TEA, 10 mM EDTA adjusted to the desired pH; free enzyme, 5 µg/mL, 80 µM MMTS.
Data set [2] concerns the target T1, Cys15 (UniProt position 15, AANWKCNGSES). The data set is described as above. To be noted: not stated for the pKa determination (MMTS inactivation and activity assays were at 25°C), 100 mM TEA, 10 mM EDTA adjusted to the desired pH, free enzyme, 5 µg/mL.
In data set [3] the test system is Cys14. The data set is described as above. To be noted: not stated for the pKa determination (MMTS inactivation and activity assays were at 25°C); 100 mM TEA, 10 mM EDTA adjusted to the desired pH; free enzyme, 5 µg/mL, 80 µM MMTS.
The target of data set [4] is T2, Cys14 (UniProt position 14, AANWKCNGSQQ). The description is as above. To be noted: not stated for the pKa determination (MMTS inactivation and activity assays were at 25°C); 100 mM TEA, 10 mM EDTA adjusted to the desired pH; free enzyme, 5 µg/mL, 80 µM MMTS.
Data set [5] has as its target T2, Cys14. Kind of data set: chemical modification (as in ref 24; this article says its new determinations were made 'under the same conditions'). To be noted: free enzyme; cited from earlier work.
Data set [6] addresses T1, Cys15. Described as above. To be noted: free enzyme; cited from earlier work.
[7] abbreviates: 10 and 80 µM MMTS (mean of both).

For “Chimera TcTIM 1 (region 1 of TcTIM, regions 2-8 of TbTIM) (Trypanosoma cruzi / Trypanosoma brucei chimera; region 1 of TbTIM replaced by the TcTIM sequence (13 differing residues plus a one-residue N-terminal length difference; individual substitutions not listed in the text))”, the pKa (usually the pH at which an ionisable group is half protonated) with Cys15 [1] is recorded as 9.49±0.08.

The substance “Chimera TcTIM 1-3 (regions 1-3 of TcTIM, regions 4-8 of TbTIM) (Trypanosoma cruzi / Trypanosoma brucei chimera; regions 4-8 of TcTIM replaced by the TbTIM sequence (individual substitutions not listed in the text))” had a pKa with Cys15 [2] (setting [7]) of 9.86±0.05.

Regarding “Chimera TcTIM 1-3, 5-8 (TcTIM with region 4 of TbTIM) (Trypanosoma cruzi / Trypanosoma brucei chimera; region 4 of TcTIM replaced by the TbTIM sequence (5 substitutions, not listed individually in the text))”, the pKa with Cys15 [2] (setting [7]) came out at 9.59±0.06.

As for “Chimera TcTIM 1-4 (regions 1-4 of TcTIM, regions 5-8 of TbTIM) (Trypanosoma cruzi / Trypanosoma brucei chimera; regions 5-8 of TcTIM replaced by the TbTIM sequence (individual substitutions not listed in the text; Figure 1 is image only))”, the pKa with Cys15 [2] (10 µM MMTS) is given as 9.17±0.12.

“Chimera TcTIM 2,3, 5-8 (TcTIM with regions 1 and 4 of TbTIM) (Trypanosoma cruzi / Trypanosoma brucei chimera; regions 1 and 4 of TcTIM replaced by the TbTIM sequence (13 + 5 differing residues, not listed individually in the text))”: the pKa in the data set with Cys14 [3] is given as 10.61±0.06.

As for “Triosephosphate isomerase (TbTIM), wild type (Trypanosoma brucei)”, the pKa with Cys14 [4] is reported as 10.53±0.06; with Cys14 [5], 10.08±0.03.

As for “Triosephosphate isomerase (TcTIM), wild type (Trypanosoma cruzi)”, the pKa was 9.27±0.16 in the data set with Cys15 [2] (10 µM MMTS) and 9.28±0.07 in the data set with Cys15 [6].

Values taken from article PMC3078909.
